Assay results taken from a protein production outcome set (Wang et al. 2014).

Experiment: label from the status in PepcDB records

For “MIKKIHRWLPLLVLIGLLVLFFSLHLDKYLSFNALRENHALLIAWTQTHYFIAPLIFIVFYTTAVAISIPGAVLLTLTGGFLFGVFWGVLFVVISATLGATILFFAVRTALGDWFAQKASGWIERMRQGFQHNAFSYLVTLRLIPLFPFWAVNIVPALLNIRAKTFITATFIGIIPGTTVYVMVGNGLSQIFAANQTPNLGIIFELQILGPLLALAVLSLMPVLYQFSTRKHQNHHSFSDISRVINCDLAIIGGGAGGLSLASGCSQLGLKVVLVESGKMGGDCLNYGCIPSKSLLAAAKTFYYAKHATHFGVHTEAIKINFQQVMQHVHQIIDNISEHDSVQRFESLGVQVIKQVGKFLNPDTLQAGDSIIKAKRFVVATGSSPFIPPIPGLDAVSYFTNETIFDLKEQPEHLIVIGGGPIGCELAQAFAMLGSKVTLLEGLNLLPKDDPDCVAVLRTQMKSMSIVIHEQIEITQINSHPDTGISVCFEFQNTQFTITASHLLIATGRRANVKPLDLEKAGVKLTSKGVEVNKYLQTSNKKIYALGDVTGLYQFTHMASYQASIVLRNIVFKLPSKVDYRAIPWVTYTDPELAHVGIGVSDALKHPDAQIIEWPFVDNDRAQTERSLNGKIKIITDKKARILGVTIVGPHAGELILPWVMAIREKKNLRSFTDVIVPYPTLSEISKRVAGSFYAPKLFSNKTRMLVRWLQKIG”, which protein production is on record?
Its protein production is “failed”.

Which protein production does the source give for “MIKLQLKLQGSVSVQVNAGPLAYARAFLDDTNTKRYPDNKVKLLKEVFRQFVEACGQALAVNERLIKEDQLEY” here?
Its protein production is “failed”.

For “MIKLSSITAHILDIWHRRNSRSYIAHLRSLGIRIGDGCIFRDPLTTRIDVSRPALVSIGSNVDMNTYFQILTHDWASFVFRNKYHDFVNSSGRVEIGSNIYIGTNVIVLRGVTIGDNCVIGAGSVVTHDIPANSVAVGAPCRVVCSLDEYYQKRKVKGLQEAVEHVKAFQKNFGRDPLPHELYEEFIYFVDASNVEEYERQGVPVRSQLSIAYGDWLSTHKAKFSSYDDFIQYVNQKMNETAES”, which protein production is on record?
Its protein production is “failed”.

With “MIKQVNPHFKEFLFDWNQKFQFLVGGYGSSKSYHVALKIVLKLLREKRTALVIREVYDTHRDSTFSLFDELVSDLKLDHIVRCVSSPMQIRFSNGSRIIFKGMDKPAKLKSINNISLIWIEECSEVKYEGFKELLGRLRHPTLPLHMILSTNPVGEDNWTFKHFFKDDREKRFVLDDKELYEKRIIVSNDTYYHHSTADDNLFLPESYVQQLEELKEYDPDLYRIARKGHFGVNGIRVLPQFEERPHEEVMTAISNINRPLKRVGMDFGFVESYNAVVRVAVDHEKKYLYIYWEYYKNGLTDDKTAEELKEFAETKELIKADSAEPKTIRYFQQHGFNMVGARKYQGSRLQYTKKIKRFRKIICSDRCENTIYELKPLAYATDKLGNIIEDEFTIDPHTLSAIWYALDDYEVTDLKEESKGRPQRSRPGRR” as the sequence, how does the protein production read?
Its protein production is “not failed”.

For “MIKSSLPPILTSQIGPDSIELRLLVAADLEYFNGHFPEQAVLPGVTQLDWAVRLGCEHFGYSAAVANLEVLKFQQLILPGQEVTLVISHNATKEKLTFAYSDGDHRYASGRISFASKQDDGAAQ”, which protein production is on record?
The protein production was “failed”.

Which protein production does the source give for “MIKVAESRTSWVASVFGLAALYVLGTVTPLEDIDSHLGGVNVTNLLQAIFALLAIFFFNDSVRRLANVPVVRWTYYAPLLSIPVMIASFSLIADKAPTAADFIDTRMDQLATAVYSGTYMFALLFTVLRIIYMLRHNAKGPYATFSAGLMVVAVAVSCHIAYVVLYYFSPWDDFARAIGTWFDRLFYIGLTVTAAGWLILFLSKQLPRLRLWMIDALWLTAMRMRVNADRSRVSPAWDLFNETLENGVYKSLIVLHNYERVNLMEFPESVQGRISHIEAKLDAQT” here?
Its protein production is “failed”.

With “MILATYFDGRTSRAQPVRLAVEQGEAVLFDPEGVPVRRAPLSALRVSERVKHAPRLVTFEDGAFCEIADPAEQQALNALLHRTGYREGAVVRAQNSWRLALGALALTLAALVLGYRYGLPWGAKVLAGMVPQRVEAQLGHASLAAFDQHWLEPSKLPQAQQARIRARFAALRAPDATHAYTIAFRDAGKLGANAFALPGGDIIVTDALVRLVGEGDGLMGVLAHEAGHVEYRHGLRQLIQSSAIGATAALLFGDISTILAGVPATMLTLRYSRDYERDADRYASRMLQSNGLSVAAFADVLQALEDSHGGARGTGSGAGRKEEDRDDASGFFSSHPLTRERIETLRRFDHTHGGSDAD” as the sequence, how does the protein production read?
Its protein production is “failed”.

With “MILDEKNRKNLVFLILQFFDEEGYEESLHLLEQDSGVFFDFSYLSNAILNGNWKDADDYLSAFTSPEANTFSRKMFFGLFKSGGSEAVKIFSKDLRRIPVLKDDSFDDLVEVIAETCCVDKAPGRAKLCVDLHKLAESNPSLRGKLDFPSLNKSALLALISLLCPNCSRRKGGLKEDLICLILQFLYEAKYKNTLHKLEQETKVFFNLNYLAEVMKLGEYGKAEEYLGAFTNWEDNKYSKAMFLELQKLICLQSTEWEVATPSGSLDNMSLKIKLHASVAMLAKKNPVLKDELKFPSMEKSRLLTLVKQTMDWWTCNNTSSLENVPVVSYLCGTPSSMKFFFKKTVPRKKKPNEIKDPSQCNALVLPDCFSEEKIARLTYSPSGDYILALAEDATHKLWTWSSSQNEFCKPRLHQPQSGKTMENEMATSVQKSTSCFAVKGSYLFSTSGGKIAVFDLKNFEKVASFGSPTPMATYFIFIPGDLLAVGLDDGSIFIHCLSSRKVKEKLEGHDQKITCLAFSRCFNVLVSSDSDGKLCLWSTKSWVKLTSKNSTRKFCNRSNLESTSLVTHIQFDPYQIELLVVHDGWIGLYEVRTLDCRLQWIPDASDPAITSATYSSDGEIIYVGFRCGSIKIVDSKTFMTLCQINLTSFTQLSTSNISLEVYPTVVAAHPSHPNQISAGLSNGKVIVLQPLWSGGWGEAAPLEDNGDYSNDSDHSY” as the sequence, how does the protein production read?
Its protein production is “failed”.

With “MILIRLEPGMDLMEEMRAAFSEGVVVTGIGSLHRVRIRTADESELTVEGPLEILSLQGTISPDGVHIHIAVADSEGRVTGGHLRGDSPVRTTAEIAVIPYQGVLRRVMDRRTGYRELLVLE” as the sequence, how does the protein production read?
The protein production was “failed”.

Which protein production does the source give for “MILKTLRNIFITIVVIAIIVIGGLFGLNAYSNQHPNNHSINDWNKLNPLAPTYEYYVKTQKPSKVEVVDKEKDFYIYHYNQTGYTKDGKSKKIEYTASKKLKQNHYLVVREKSHTIQSFEEVKKSKIPTKAKEKL” here?
The protein production was “failed”.

For “MILLSVHDSFLLDHNLPSACDKVFERLLDVTNSSFGFIATLQEDEDGQSLYLPAISNLAWDEETLTWYRHQRRTHGGLRLRKLDNLFGHVVTHNTVVCTNSLLRQKAGRDLPPIHPALHSLLGIPITHNGKTVGMIALANRREGYDQTMIELEHHHHHH”, which protein production is on record?
The protein production was “failed”.

For “MILLTKITLLLFSSIFFSYILYMKSHSFKKIEPRKCSLNLMIIGMAFIVVGEFLNFISSFVKYRVDIYVSFCFILGAILFVIFAIIFLNSVDNTLKCLYGCVYEDAMTGVYNRNGIKKIFKDTINKEDNFFVMSFDLDETKIINDNFGHLVGDEYIISAARAIKEVLGAKGVVGRTGGDEFAAIYISTDQEELKKVKTHINKRASEIFNGSNINISMGFSTYKKDGKNMKELFDLADKRMYQDKKNKRKADQRF”, which protein production is on record?
Its protein production is “failed”.

Which protein production does the source give for “MILMSNEIKNPKKRRKLVEYANGRSLEEINGTVKVPKNIGFWKALFMYSGPGALVAVGYMDPGNWSTSITGGQNFQYMLMSIILISSLIAMLLQYMAAKLGIVSQMDLAQAIRARTSKSLGIVLWILTELAIMATDIAEVIGAAIALYLLFHIPLAIAVFITVLDVLLLLLLTKIGFRKIEAIVVCLIMVILVVFVYQVALSNPNWGAVFSGLVPTTKAFETSPTIGGMTPLSGSLGIIGATVMPHNLYLHSAVSQTREIDHNDEEDVARTLRFSTWDSNIQLSFAFIVNSLLLVMGVAVFKSGAVQDPSFFGLFHALNDTSTLSNGILIGVAKTGVLSTLFAVALLASGQNSTITGTLTGQVIMEGFIHMRMPLWARRLITRLISVVPVLICVMITSGKGDLQEHEALNQLMNNSQVFLAFALPFSMIPLLMMTDSRVEMGDRFKNSWAVKILGWISVIFLTYLNMTGLPNSITAFFGANPSAGEVELAHIIAYMLVAVVLALLAWTVFELHKGNQRYELEMRSKAEAKEEA” here?
Its protein production is “failed”.

For “MILNPQQRTKLDSRRDDLFYAAPRFVTHVDDFFLARLTDLYRQYLQPQMRVLDLMSSWVSHLPPELSFQEVVGHGMNAAELARNPRLDRYFVQNLNEELALPLEDASFNAVLMAVSVQYLQYPEATFTEIARILKPQGVVIVSFSNRMFFEKAIQAWREGSEGDRVQLVQTYINSTPSLKVIATHLPRLWPWRGFTDPFYAVVGQKQAVLEHHHHHH”, which protein production is on record?
The protein production was “not failed”.

Which protein production does the source give for “MILNTEEYPISIGNEIKYTKEVYDCLQLLRLRTILKEYEVNLILDVGANEGQFASVLRDIGYVGTIISFEPLSKEYRLLSQAASKDSNWYTYNLALGKQNKEQILHVSDKSTFSSFLLSNSLCEQRFGKESIGDKNEVVSVRRLDNFLVEVVKNIDKMRIYLKMDTQGYDLEVFSGAGTLLKNIVALQSEVSVVPIYHSMPDMLYSISLFQEAGFSLSGMYPVTYVKPTLQVIEFDCLMVKADTKIS” here?
The protein production was “failed”.

With “MILNVAGPLGNPAPMEKFGKILAIGAYVGIAEVYPIAKAWQEIGNDVTTLHVTFEPMVILKDYFEKAVSRHIVEPVKIDQEKSFQENTKNVTKALTAKVKELLDNENWDLVFMVGPPGDQKAVFEVVKKYGIPMKVDLHPIMLEHHHHHH” as the sequence, how does the protein production read?
The protein production was “not failed”.

Which protein production does the source give for “MILPPAFHAALLSGGNGRESKLPWVALGLAWLLAVLALLGPSWQRVEQTSQKPADPLVVLLELTPQMLANDVPPDRLEQARHKLLDLLQLRSDAQTAIVVYAGSAHTLVPLSDDLATSRNLLDALKPSIMPQAGQRADLALLKALKLLDQGALGQGRVLLMASSLNEEERQGIRQALKGDAPQLLMLGFGSRDGAPVAQEDGSYLKDDQGAILVSRLDSPDLKHFIGDVGGRYRQARLDDSDLRGLGLLGGPQGLRSDGQTLRLDTWADQGYWLLLPLLLLAACAGRRGWLFCLPLLLFAVPQPSYAFDFNDLWLRPDQQGQRLLQQQRPAEAARHFQDPQWQGVALYEAGNYTAAAERFAEGNDARAHYNRGNALARSGELEAAIDAYEQALERQPDLQPALQNKALVESLLQQQQAQTQTPPPAKKPDTPEGDDTRPGPSGAATQPPPGSNGPQDPAQAPANEGDTPPPDPQAAGHSEVPGSELDDQHTTTPLRPVEDSLDAEHQQALEQWLRKIPDDPGELLRRKFWYEQQQHQDQGKTR” here?
The protein production was “failed”.

With “MILQNKTFDLNPNDIAGLELVCQTLRNRILEVVSANGGHLSSSLGAVELIVGMHALFDCQKNPFIFDTSHQAYAHKLLTGRFESFSTLRQFKGLSGFTKPSESAYDYFIAGHSSTSVSIGVGVAKAFCLKQALGMPIALLGDGSISAGIFYEALNELGDRKYPMIMILNDNEMSISTPIGALSKALSQLMKGPFYQSFRSKVKKILSTLPESVNYLASRFEESFKLITPGVFFEELGINYIGPINGHDLSAIIETLKLAKELKEPVLIHAQTLKGKGYKIAEGRYEKWHGVGPFDLDTGLSKKSKSAILSPTEAYSNTLLELAKKDEKIVGVTAAMPSGTGLDKLIDAYPLRFFDVAIAEQHALTSSSAMAKEGFKPFVSIYSTFLQRAYDSIVHDACISSLPIKLAIDRAGIVGEDGETHQGLLDVSYLRSIPNMVIFAPRDNETLKNAVRFANEHDSSPCAFRYPRGSFALKEGVFEPSGFVLGQSELLKKEGEILLIGYGNGVGRAHLVQLALKEKNIECALLDLRFLKPLDPNLSAIVAPYQKLYVFSDNYKLGGVASAILEFLSEQNILKPVKSFEIIDEFIMHGNTALVEKSLGLDTESLTDAILKDLGQER” as the sequence, how does the protein production read?
The protein production was “failed”.

With “MILSRYIARRFLRMVFIVFLAFFGLMMLIDVLDQMRRFSDEGITLVQAGLLSLLRVPATLYTILPLIVILAAVALFLGLARSSELVVVRAAGRSGLRFLVAPMVVALALGTVAVTVLNPIVAGTSRQYDAAAGRLARGEASILSISKEGLWLRQGGSGEQTVIHALRSNTDGTRLYAVTFLTFDAEGRPTGRIAAEQAALERGYWQLSGAKSWDLTEANPEARAGLPGNLRVTSELTREGIQDSFGDPSAIPIWELPAYVAGLERAGFSARKHRVWMQMEFALPATLAAMVLVAAGFTMRHSRFGGTGRMVLLALLGGFSLFFLRNFAQVLGENGQIPILLAAWSPPLIGVMGSLGLLLHLEDG” as the sequence, how does the protein production read?
The protein production was “failed”.
